Assay results as given in IntAct's records for PubMed 28891236.

B1: Adhesion G protein-coupled receptor B2 (Homo sapiens), O60241 (parent)
chain: MENTGWMGKGHRMTPACPLLLSVILSLRLATAFDPAPSACSALASGVLYGAFSLQDLFPTIASGCSWTLENPDPTKYSLYLRFNRQEQVCAHFAPRLLPLDHYLVNFTCLRPSPEEAVAQAESEVGRPEEEEAEAAAGLELCSGSGPFTFLHFDKNFVQLCLSAEPSEAPRLLAPAALAFRFVEVLLINNNNSSQFTCGVLCRWSEECGRAAGRACGFAQPGCSCPGEAGAGSTTTTSPGPPAAHTLSNALVPGGPAPPAEADLHSGSSNDLFTTEMRYGEEPEEEPKVKTQWPRSADEPGLYMAQTGDPAAEEWSPWSVCSLTCGQGLQVRTRSCVSSPYGTLCSGPLRETRPCNNSATCPVHGVWEEWGSWSLCSRSCGRGSRSRMRTCVPPQHGGKACEGPELQTKLCSMAACPVEGQWLEWGPWGPCSTSCANGTQQRSRKCSVAGPAWATCTGALTDTRECSNLECPATDSKWGPWNAWSLCSKTCDTGWQRRFRMCQATGTQGYPCEGTGEEVKPCSEKRCPAFHEMCRDEYVMLMTWKKAAAGEIIYNKCPPNASGSASRRCLLSAQGVAYWGLPSFARCISHEYRYLYLSLREHLAKGQRMLAGEGMSQVVRSLQELLARRTYYSGDLLFSVDILRNVTDTFKRATYVPSADDVQRFFQVVSFMVDAENKEKWDDAQQVSPGSVHLLRVVEDFIHLVGDALKAFQSSLIVTDNLVISIQREPVSAVSSDITFPMRGRRGMKDWVRHSEDRLFLPKEVLSLSSPGKPATSGAAGSPGRGRGPGTVPPGPGHSHQRLLPADPDESSYFVIGAVLYRTLGLILPPPRPPLAVTSRVMTVTVRPPTQPPAEPLITVELSYIINGTTDPHCASWDYSRADASSGDWDTENCQTLETQAAHTRCQCQHLSTFAVLAQPPKDLTLELAGSPSVPLVIGCAVSCMALLTLLAIYAAFWRFIKSERSIILLNFCLSILASNILILVGQSRVLSKGVCTMTAAFLHFFFLSSFCWVLTEAWQSYLAVIGRMRTRLVRKRFLCLGWGLPALVVAVSVGFTRTKGYGTSSYCWLSLEGGLLYAFVGPAAVIVLVNMLIGIIVFNKLMARDGISDKSKKQRAGSERCPWASLLLPCSACGAVPSPLLSSASARNAMASLWSSCVVLPLLALTWMSAVLAMTDRRSVLFQALFAVFNSAQGFVITAVHCFLRREVQDVVKCQMGVCRADESEDSPDSCKNGQLQILSDFEKDVDLACQTVLFKEVNTCNPSTITGTLSRLSLDEDEEPKSCLVGPEGSLSFSPLPGNILVPMAASPGLGEPPPPQEANPVYMCGEGGLRQLDLTWLRPTEPGSEGDYMVLPRRTLSLQPGGGGGGGEDAPRARPEGTPRRAAKTVAHTEGYPSFLSVDHSGLGLGPAYGSLQNPYGMTFQPPPPTPSARQVPEPGERSRTMPRTVPGSTMKMGSLERKKLRYSDLDFEKVMHTRKRHSELYHELNQKFHTFDRYRSQSTAKREKRWSVSSGGAAERSVCTDKPSPGERPSLSQHRRHQSWSTFKSMTLGSLPPKPRERLTLHRAAAWEPTEPPDGDFQTEV

Variants of: B1
Details: with gnaz_human GNAZ

Row | effect of a mutation on the interaction | Variant
1 | with no effect | R1465W

Variants of: B1
Details: with gnai1_human GNAI1, P63096
gnai1_human GNAI1, P63096, sequence (P63096 whole entry): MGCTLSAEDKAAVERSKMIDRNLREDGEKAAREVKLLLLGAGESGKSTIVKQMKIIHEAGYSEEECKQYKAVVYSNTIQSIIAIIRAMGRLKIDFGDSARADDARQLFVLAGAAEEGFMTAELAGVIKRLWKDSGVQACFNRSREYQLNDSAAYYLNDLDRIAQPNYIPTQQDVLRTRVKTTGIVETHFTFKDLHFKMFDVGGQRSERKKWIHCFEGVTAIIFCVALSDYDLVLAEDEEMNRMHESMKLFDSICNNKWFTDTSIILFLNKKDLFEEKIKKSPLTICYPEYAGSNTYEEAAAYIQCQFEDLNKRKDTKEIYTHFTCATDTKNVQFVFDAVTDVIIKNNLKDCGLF

Row | effect of a mutation on the interaction | Variant
2 | causing an interaction | R1465W

Variants of: B1
Details: with arrb2_rat Arrb2, P29067
arrb2_rat Arrb2, P29067, sequence (P29067 whole entry): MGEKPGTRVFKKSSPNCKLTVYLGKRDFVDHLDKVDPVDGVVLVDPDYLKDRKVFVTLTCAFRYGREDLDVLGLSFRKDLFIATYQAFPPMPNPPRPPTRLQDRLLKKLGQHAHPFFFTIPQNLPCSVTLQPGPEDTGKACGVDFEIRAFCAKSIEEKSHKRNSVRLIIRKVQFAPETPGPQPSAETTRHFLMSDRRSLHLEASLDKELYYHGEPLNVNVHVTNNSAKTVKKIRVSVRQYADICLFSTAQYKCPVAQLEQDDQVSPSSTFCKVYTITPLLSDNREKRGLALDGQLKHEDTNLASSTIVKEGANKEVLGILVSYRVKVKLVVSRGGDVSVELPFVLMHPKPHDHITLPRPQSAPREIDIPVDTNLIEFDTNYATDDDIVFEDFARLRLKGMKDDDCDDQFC

Row | effect of a mutation on the interaction | Variant
3 | with no effect | R1465W

Variants of: B1
Details: with sh3g2_human SH3GL2, Q99962
sh3g2_human SH3GL2, Q99962, sequence (Q99962 whole entry): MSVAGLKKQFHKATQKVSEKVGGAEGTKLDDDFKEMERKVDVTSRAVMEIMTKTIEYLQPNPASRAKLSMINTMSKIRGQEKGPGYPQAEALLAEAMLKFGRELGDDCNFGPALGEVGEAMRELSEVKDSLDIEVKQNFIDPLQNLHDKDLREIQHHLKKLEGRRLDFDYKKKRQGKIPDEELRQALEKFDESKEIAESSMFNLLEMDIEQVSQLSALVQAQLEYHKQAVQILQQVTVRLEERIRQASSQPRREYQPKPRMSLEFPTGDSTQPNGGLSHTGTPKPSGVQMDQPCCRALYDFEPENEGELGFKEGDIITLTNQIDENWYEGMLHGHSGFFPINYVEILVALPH

Row | effect of a mutation on the interaction | Variant
4 | disrupting interaction strength | R1465W
